Experimental data reported in patent US11231420 (APTALOGIC, INC.).

T1: Lcn2 (lipocalin 2, uterocalin) (UniProt P11672 P11672:21-200)
T1 sequence: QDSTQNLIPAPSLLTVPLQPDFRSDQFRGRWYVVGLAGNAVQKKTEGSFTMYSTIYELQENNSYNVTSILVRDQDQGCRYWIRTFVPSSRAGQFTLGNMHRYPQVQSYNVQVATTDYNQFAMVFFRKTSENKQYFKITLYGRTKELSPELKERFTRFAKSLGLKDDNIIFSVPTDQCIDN

T2: SUDV sGP (soluble glycoprotein) (Sudan ebolavirus, UniProt Q7T9E0 Q7T9E0:33-324)
T2 sequence: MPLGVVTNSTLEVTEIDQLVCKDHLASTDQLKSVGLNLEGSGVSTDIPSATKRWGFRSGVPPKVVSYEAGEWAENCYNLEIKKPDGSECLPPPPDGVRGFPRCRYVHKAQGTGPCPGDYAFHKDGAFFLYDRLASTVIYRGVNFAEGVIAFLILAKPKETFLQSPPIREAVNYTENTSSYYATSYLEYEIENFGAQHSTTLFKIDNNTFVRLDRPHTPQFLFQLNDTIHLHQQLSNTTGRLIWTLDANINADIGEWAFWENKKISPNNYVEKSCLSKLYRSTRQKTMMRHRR

B1: Aptamer 6011 (ssDNA)
DNA: GCCTGTTGTGAGCCTCCTGTCGAACAACCACTCATATCTACTACATGACTTGCTCCATTCTGTTCTTTCTCTACGCATTGAGCGTTTATTCTTGTCTCCC
B2: Aptamer 6021 (ssDNA)
DNA: GCCTGTTGTGAGCCTCCTGTCGAAACTGTACTTCACTTTTACCTCCTCTTGCTCTTATCTGTACTATTGTCTCTCCGTTGAGCGTTTATTCTTGTCTCCC
B3: Aptamer 6022 (ssDNA)
DNA: GCCTGTTGTGAGCCTCCTGTCGAACCCTATCTTGTTCATGCTATTCTCAATATTTTCGGTTCACTTACCGTCTGCCTTTGAGCGTTTATTCTTGTCTCCC
B4: Aptamer 6012 (ssDNA)
DNA: GCCTGTTGTGAGCCTCCTGTCGAACGTATTTCTTGCTTCCTTCCTTGCCGCGCACATTGCAGTATAAGTACCTGTCGTTGAGCGTTTATTCTTGTCTCCC

Legend:
[1] = target: T3, EBOV sGP (soluble glycoprotein) (Zaire ebolavirus, UniProt P60170 P60170:33-324); assay: filter; conditions: tags: His-tag; chain copies: 2; label: 5'-32P
[2] = target: EBOV GP1,2 (UniProt Q05320 Q05320:33-650); assay: filter; conditions: label: 5'-32P
[3] = target: T1, Lcn2 (lipocalin 2, uterocalin); assay: filter; no serum; conditions: tags: His-tag; label: 5'-32P
[4] = target: T2, SUDV sGP (soluble glycoprotein); assay: filter; no serum; conditions: chain copies: 2; label: 5'-32P
[5] = target: T4, Human serum albumin (HSA) (Homo sapiens, UniProt P02768 P02768:25-609); assay: filter; HSA up to 6 uM; conditions: label: 5'-32P
[6] = target: T3, EBOV sGP (soluble glycoprotein); assay: filter; PBS with 5 mM Mg, pH 7; conditions: tags: His-tag; chain copies: 2; label: 5'-32P
[7] = target: T4, Human serum albumin (HSA); assay: filter; HSA tested up to 6 uM; estimated; conditions: label: 5'-32P
[8] = target: T1, Lcn2 (lipocalin 2, uterocalin); assay: filter; text says Lcn2 not bound by the aptamers; conditions: tags: His-tag; label: 5'-32P

T3 sequence (P60170 33-324, one chain of several): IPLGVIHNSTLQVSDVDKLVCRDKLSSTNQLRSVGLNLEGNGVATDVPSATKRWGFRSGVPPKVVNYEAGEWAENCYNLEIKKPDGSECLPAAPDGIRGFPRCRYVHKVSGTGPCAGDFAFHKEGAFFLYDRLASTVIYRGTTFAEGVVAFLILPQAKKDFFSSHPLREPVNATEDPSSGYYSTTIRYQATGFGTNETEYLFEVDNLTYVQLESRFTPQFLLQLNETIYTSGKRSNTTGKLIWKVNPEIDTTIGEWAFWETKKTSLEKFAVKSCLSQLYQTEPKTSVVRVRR
T4 sequence (P02768 25-609, one chain of several): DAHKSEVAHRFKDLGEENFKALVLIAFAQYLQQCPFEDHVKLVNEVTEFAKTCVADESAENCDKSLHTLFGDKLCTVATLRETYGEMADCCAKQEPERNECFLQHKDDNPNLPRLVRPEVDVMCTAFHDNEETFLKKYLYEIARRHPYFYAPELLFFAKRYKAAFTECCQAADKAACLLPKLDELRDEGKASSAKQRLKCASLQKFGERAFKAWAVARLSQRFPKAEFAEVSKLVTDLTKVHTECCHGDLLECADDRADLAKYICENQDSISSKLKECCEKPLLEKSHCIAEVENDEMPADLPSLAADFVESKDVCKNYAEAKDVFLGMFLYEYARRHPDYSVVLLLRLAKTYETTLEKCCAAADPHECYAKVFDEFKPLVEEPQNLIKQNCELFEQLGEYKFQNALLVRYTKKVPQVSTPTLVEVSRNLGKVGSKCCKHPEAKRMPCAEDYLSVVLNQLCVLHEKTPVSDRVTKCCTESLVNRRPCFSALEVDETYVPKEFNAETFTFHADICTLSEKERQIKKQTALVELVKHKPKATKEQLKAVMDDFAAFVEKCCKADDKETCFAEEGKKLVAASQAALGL
EBOV GP1,2, sequence (Q05320 33-650, one chain of several): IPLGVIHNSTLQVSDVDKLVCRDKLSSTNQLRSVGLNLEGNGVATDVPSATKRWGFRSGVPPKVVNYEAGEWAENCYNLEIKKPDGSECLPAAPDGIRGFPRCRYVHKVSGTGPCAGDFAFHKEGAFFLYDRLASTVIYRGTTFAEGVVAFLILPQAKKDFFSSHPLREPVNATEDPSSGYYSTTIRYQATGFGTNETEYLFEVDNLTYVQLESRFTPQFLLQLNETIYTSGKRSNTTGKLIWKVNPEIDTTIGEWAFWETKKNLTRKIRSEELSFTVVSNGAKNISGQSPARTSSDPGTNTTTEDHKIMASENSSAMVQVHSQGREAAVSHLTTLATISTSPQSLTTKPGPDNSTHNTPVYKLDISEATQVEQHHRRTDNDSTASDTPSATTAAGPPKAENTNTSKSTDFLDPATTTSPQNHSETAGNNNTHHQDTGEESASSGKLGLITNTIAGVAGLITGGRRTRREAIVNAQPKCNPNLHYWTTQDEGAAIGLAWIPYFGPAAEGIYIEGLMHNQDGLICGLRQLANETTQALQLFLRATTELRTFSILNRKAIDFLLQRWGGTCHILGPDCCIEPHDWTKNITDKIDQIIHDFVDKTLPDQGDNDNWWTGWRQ

Binder	Kd [1]	binding result [2]	binding result [3]	Kd [4]	binding result [5]	Kd [6]	Kd [7]	Kd [2]	binding result [8]
B1	30 nM	binds	no binding	240 nM	no binding	–	–	–	–
B2	–	–	–	–	no binding	20 nM	–	–	–
B3	–	–	–	–	–	100 nM	~100000 nM	–	–
B4	–	–	–	–	no binding	90 nM	–	22 nM	no binding
